Residue numbers refer to the chain shown, from its start.
T1: rhesus monkey KLB (+N-ter FLAG) (rhesus monkey, UniProt Q86Z14 53-992 (human entry))
T1 construct: expressed from KLB cDNA on HEK293T cells and read by FACS
T1 chain: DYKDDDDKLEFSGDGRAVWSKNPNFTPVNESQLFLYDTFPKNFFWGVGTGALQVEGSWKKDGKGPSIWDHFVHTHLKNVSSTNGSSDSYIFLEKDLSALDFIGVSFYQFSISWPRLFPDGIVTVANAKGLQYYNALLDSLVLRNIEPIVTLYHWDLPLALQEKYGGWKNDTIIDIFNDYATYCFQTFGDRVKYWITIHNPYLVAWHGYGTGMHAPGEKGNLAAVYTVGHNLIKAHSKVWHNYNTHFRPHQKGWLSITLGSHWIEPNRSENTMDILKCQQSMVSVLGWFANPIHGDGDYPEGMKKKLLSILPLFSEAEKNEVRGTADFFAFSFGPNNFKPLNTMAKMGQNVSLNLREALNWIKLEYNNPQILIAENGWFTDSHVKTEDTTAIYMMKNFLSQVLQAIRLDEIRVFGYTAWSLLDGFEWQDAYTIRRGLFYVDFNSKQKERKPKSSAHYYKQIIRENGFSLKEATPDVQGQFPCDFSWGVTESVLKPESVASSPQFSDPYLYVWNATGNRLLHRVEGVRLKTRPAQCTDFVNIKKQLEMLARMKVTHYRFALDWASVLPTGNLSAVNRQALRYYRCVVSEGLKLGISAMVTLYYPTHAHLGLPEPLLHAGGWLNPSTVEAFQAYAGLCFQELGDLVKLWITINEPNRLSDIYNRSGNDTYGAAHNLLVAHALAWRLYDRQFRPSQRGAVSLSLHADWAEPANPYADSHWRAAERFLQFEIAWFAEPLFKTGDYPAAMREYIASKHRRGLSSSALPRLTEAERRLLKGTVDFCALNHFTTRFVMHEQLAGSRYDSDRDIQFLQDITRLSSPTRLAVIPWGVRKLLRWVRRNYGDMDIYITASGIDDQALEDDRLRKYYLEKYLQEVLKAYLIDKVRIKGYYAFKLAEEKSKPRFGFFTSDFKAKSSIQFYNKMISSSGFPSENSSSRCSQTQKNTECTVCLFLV

T2: mouse KLB (mouse, UniProt Q99N32 53-990)
T2 construct: expressed from KLB cDNA on HEK293T cells and read by FACS; also called msKLB
T2 sequence: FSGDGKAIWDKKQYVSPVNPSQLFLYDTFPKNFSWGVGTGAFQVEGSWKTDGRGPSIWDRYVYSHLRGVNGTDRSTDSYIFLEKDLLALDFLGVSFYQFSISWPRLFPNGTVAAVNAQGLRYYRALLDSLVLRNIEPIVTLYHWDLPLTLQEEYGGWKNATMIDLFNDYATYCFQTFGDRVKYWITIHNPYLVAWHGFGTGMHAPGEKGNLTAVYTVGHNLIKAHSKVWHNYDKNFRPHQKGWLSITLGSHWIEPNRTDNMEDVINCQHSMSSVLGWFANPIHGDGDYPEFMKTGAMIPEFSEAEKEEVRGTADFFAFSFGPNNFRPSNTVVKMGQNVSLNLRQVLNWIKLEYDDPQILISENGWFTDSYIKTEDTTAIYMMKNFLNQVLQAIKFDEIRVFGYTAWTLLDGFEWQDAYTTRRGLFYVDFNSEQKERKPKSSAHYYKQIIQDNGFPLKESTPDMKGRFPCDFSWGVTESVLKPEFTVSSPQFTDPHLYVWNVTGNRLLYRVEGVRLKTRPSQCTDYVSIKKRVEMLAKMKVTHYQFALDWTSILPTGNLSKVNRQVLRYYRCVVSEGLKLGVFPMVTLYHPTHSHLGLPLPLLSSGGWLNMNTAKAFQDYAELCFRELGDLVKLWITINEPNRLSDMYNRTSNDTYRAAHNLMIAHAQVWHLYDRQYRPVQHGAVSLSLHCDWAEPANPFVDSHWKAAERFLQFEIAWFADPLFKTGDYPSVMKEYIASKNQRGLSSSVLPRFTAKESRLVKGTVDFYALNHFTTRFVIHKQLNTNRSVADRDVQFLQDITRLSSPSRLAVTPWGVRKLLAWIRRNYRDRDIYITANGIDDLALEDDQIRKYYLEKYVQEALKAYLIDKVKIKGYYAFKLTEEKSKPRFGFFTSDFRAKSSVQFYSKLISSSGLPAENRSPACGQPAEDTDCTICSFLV

B1: 6C1 (antibody, V domains shown)
VH: QVQLQQSGDELMKPGASVKISCKVTGNTFSSYWIEWVKQRPGHGLEWIGEILPGSDSTKYVEKFKVKATFTADTSSNTAYMQLSSLTSEDSAVYYCARGGYHYPGWLVYWGQGTLVTVSA
VL: DIVMTQSQKFMSTSVGDRVSVTCKASQNVDSYVAWYQQKAGQSPKPLIYSASYRFSGVPDRFTGSGSGTEFTLTISNVQSEDLAEYFCQQYNISPYTFGGGTKLEIK
notes: murine hybridoma-derived anti-KLB antibody; also called KLBmAb4
B2: 8E1 (antibody, V domains shown)
VH: EVQLQQSGAELVKPGASVKLSCTAADFNIKDTYMHWVKQRPEQGLEWIGRIDPSNGNAKYDPKFQGKASITADSSSNTAYLHLSSLTSEDTAVYYCASRALGNGYALGYWGQGTSVTVSS
VL: DIQMTQSSSYLSVSLGGSVTITCKASDHINNWLAWYQQKPGNAPRLLIYGTTNLETGVPSRFSGSGSGRDYILSITSLQSEDVASYYCQQYWNTPFTFGSGTKLEIK
notes: murine hybridoma-derived anti-KLB antibody
B3: 25F7 (antibody, V domains shown)
VH: EVQLQQSGAELLKPGASVRLSCTASGFNIQDTFTHWVRQRPEQGLEWIGRIDPSNGNTKYDPKFQGKAKILADTSSNTAYLQLIGLTSEDTAVYYCASRALGNGYAMDYWGQGTSVTVSS
VL: B2 VL with S18R, Y49S, T51A, T52S, V58I, R69K, I72T, S74T, S80T, S85T
notes: as for B2
B4: 14C10 (antibody, V domains shown)
VH: QVTLKESGPGILQPSQTLSLTCSFSGFSLSTSAMGIGWIRQPSGKGLEWLAHIWWDDDKRYNPALKSRLTISKDTSRNQVFLKIASVDTADTATYFCARIDGIYDGSFYAMDYWGQGTSVTVSS
VL: DIVLTQSPASLAVSLGQRATISCRASESVDSYGNSFMHWYQQKPGQPPKLLIYRASNLESGIPARFSGSGSRTDFTLTINPVEADDVANYYCQQSNEDYTFGGGTKLEIK
notes: murine hybridoma-derived anti-KLB antibody; also called KLBmAb3
B5: 12A11 (antibody, V domains shown)
VH: EVKFLESGGGLVQPGGSLRLSCAVSGIDFSRYWMSWVRQAPGKGLEWIGEISPDSSTINYTPSLKDKFVISRDNAKNTLYLQMSKVRSADTALYYCARPSPALDYWGQGTLVTVSA
VL: DIVMTQSPATLSVTPGDRVSLSCRASQSISDYVYWYQQKSHESPRLLIIYASQSISGIPSRFSGSGSGSDFTLSINSVEPEDVGVYYCQNGHNFPYTFGGGTKLEIK
notes: murine hybridoma-derived anti-KLB antibody; also called KLBmAb2
B6: 8C5 (antibody, V domains shown)
VH: QVQLKQSGPGLVQPSQSLSVACTVSDFSLTTYGVHWVRQSPGKGLEWLGVIWSGGSTDYNAAFISRLTISKDNSKSQVFFKMNSLQTTDTAIYYCARDYGSTYVDAIDYWGQGTSVTVSS
VL: DIVLTQSPTSLAVSLGQRATISCRASESVESYGNRYMTWYQQKPGQPPKLLIYRAANLQSGIPARFSGSGSRTDFTLTIDPVEADDVATYYCQQSNEDPWTFGGGTKVEIK
notes: murine hybridoma-derived anti-KLB antibody; also called KLBmAb1
B7: 8H7 (antibody, V domains shown)
VH: QVQLQQPGAEIVKPGASVRLSCKASGYSFTSYWIHWVKQRPGQGLEWIGEIDPSVSNSNYNQKFKGKATLTADKSSSTAYMQLSGLTSEDSAVYFCVRLGVMVYGSSPFWFAYWGQGTLVTVSA
VL: DIVMTQSQKFMSTSVGDRVSITCKASQFVSDAVAWYQQKPGQSPKLLICSASYRYTGVPDRFTGSGSGTDFTFTISSVRTEDLAVYYCQQHYIVPYTFGGGTTLEIE
notes: as for B2
B8: 21H3 (antibody, V domains shown)
VH: B7 VH
VL: B7 VL
notes: as for B2
B9: 5F8 (antibody, V domains shown)
VH: EVQLQQSGTELVRPGASVKLSCTSSDFNIKDTYIHWVKQRPEQGLDWLGRIDPANGNTKYDPKFQGKAAMTSDTSSNTAYLRLSSLTSEDTAVYYCASSGNYGAMDYWGQGTSVTVSS
VL: ESVLTQSPALMSASLGEKVTMTCRASSSVNHMYWYQQKSDASPKLWIYYTSTLAPGVPARFSGSGSGNSYSLTISSMEGEDAATYYCQQFTISPSMYTFGGGTKLEIK
notes: as for B2
B10: 14E6 (antibody, V domains shown)
VH: EVPLQQSGPELVKPGATVKISCKPSGDTFTEYTMNWVRQSHGKSLEWIGGINPNNGETSYNQKFKGKATLTVDKSSSTAFMDLRILTSEDSAVYFCARKTTNYWGQGTTLIVSS
VL: DIQMTQSPSSLSASLGERVSLTCRASQEISGYLSWLQQKPDGTIKRLIYAASTLDSGVPRRFSGSRSGSDYSLTISSLESEDFADYYCLQYGSYPWTFGGGTKLELK
notes: as for B2
B11: 12B8 (antibody, V domains shown)
VH: QIQLVQSGPELKKPGETAKISCKASGYAFSNYGMNWVKQAPGKDLKWMGWIDTDTGEATYTDDFKGRFVFSLETSASTAYLQINNLKNEDMATYFCAREEYGLFGFPYWGHGTLVTVSA
VL: DIQMTQSSSSFSVSLGDRVTITCKASEDIYNRLAWYQQKPGSAPRLLISAATSLETGVPSRFSGSGSGKDYTLSITSLQTEDVATYYCQQYWSNPLTFGAGTKLEIK
notes: as for B2
B12: 11D4 (antibody, V domains shown)
VH: QVQVKESGPGLVAPSQSLSITCTVSGFSLTNYGVSWIRQPPGKGLEWLGVIWGDGSINYHSALISRLTITKDNSKSQVFLKLNSLEADDTATYYCAKTHDWFDYWGQGTLVTVSA
VL: DIQMTQTPSSLSASLGDRVTINCRASQDISNYFNWYQQKPNGTIKLLIYYTSRLQSGVPSRFSGSGSGTDYSLTISNLEQEDKATYFCHQVRTLPWTFGGGTKLEIK
notes: murine hybridoma-derived anti-KLB antibody; also called KLBmAb5
B13: 24A1 (antibody, V domains shown)
VH: QVQLKQSGAELVRPGTSVTLSCKASGYTFTDYEMHWMKQTPVYGLEWIGAIWPENADSVYNQKFKGKVTLTADKSSSTAYMDLRSLTSEDSAVYYCTREGGNYWGQGTTLTVSS
VL: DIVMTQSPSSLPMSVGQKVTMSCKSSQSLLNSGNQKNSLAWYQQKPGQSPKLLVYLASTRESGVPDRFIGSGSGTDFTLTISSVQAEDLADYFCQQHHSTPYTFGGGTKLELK
notes: as for B2
B14: 14C6 (antibody, V domains shown)
VH: QIQLQQSGAELMKPGASVRMSCKASGYTFSSYWIEWVKQRSGHGLEWIGEIFPGGGSTIYNENFRDKATFTADTSSNTAYMQLSSLTSEDSAVYFCARRGYYDAAWFDYWGQGTLVTVSA
VL: QIVLTQSPAIMSASPGERVTLTCSASSSLSSSYLYWYQQKPGSSPKLWIYGASNLASGVPGRFSGSGSGTSYSLTISSMEAEDAASYFCHQWSSYPLTFGSGTKLELK
notes: as for B2

Tests used:
[1] = target: T1, rhesus monkey KLB (+N-ter FLAG); test: FACS on transfected HEK293T cells
Experimental: (§1) Species cross reactivity of the disclosed anti-KLB antibodies were analyzed by FACS analysis using KLB cDNA from mouse, rat, rabbit, cynomolgus monkey and rhesus monkey cloned into pRK mammalian expression vectors transiently transfected into HEK293T cells. The KLB extracellular domain polypeptide sequences that were expressed are as follows: […]

[2] = target: T2, mouse KLB; test: FACS on transfected HEK293T cells
Experimental: as §1

Row | Binder | binding result [1] | binding result [2]
1 | B1 | binds | no binding
2 | B2 | binds | no binding
3 | B3 | binds | no binding
4 | B4 | binds | no binding
5 | B5 | binds | 
6 | B6 | binds | binds
7 | B7 | binds | 
8 | B8 | binds | 
9 | B9 | binds | no binding
10 | B10 | binds | binds
11 | B11 | binds | no binding
12 | B12 | binds | no binding
13 | B13 | binds | binds
14 | B14 | binds | binds

From US20220064331A1 (Genentech, published 2022)
